# B1: tyrosinase peptide 309-320 TPRLPSSADVEF (peptide)
# peptide: TPRLPSSADVEF
# notes: synthetic peptide; also called 12-mer 309-320
# B2: NY-ESO-1 peptide 92-104 LAMPFATPMEAEL (peptide)
# peptide: LAMPFATPMEAEL
# notes: synthetic peptide; also called 13-mer 92-104
# B3: NY-ESO-1 peptide 94-102 MPFATPMEA (peptide)
# peptide: MPFATPMEA
# notes: synthetic peptide; also called nonamer 94-102
# B4: tyrosinase peptide 309-321 TPRLPSSADVEFC (peptide)
# peptide: TPRLPSSADVEFC
# notes: synthetic peptide; also called 13-mer 309-321
# B5: NY-ESO-1 peptide 94-104 MPFATPMEAEL (peptide)
# peptide: MPFATPMEAEL
# notes: synthetic peptide; also called 11-mer 94-104
# B6: tyrosinase peptide 309-322 TPRLPSSADVEFCL (peptide)
# peptide: TPRLPSSADVEFCL
# notes: synthetic peptide; also called 14-mer 309-322
# B7: NY-ESO-1 peptide 92-103 LAMPFATPMEAE (peptide)
# peptide: LAMPFATPMEAE
# notes: synthetic peptide; also called 12-mer 92-103
# B8: NY-ESO-1 peptide 94-103 MPFATPMEAE (peptide)
# peptide: MPFATPMEAE
# notes: synthetic peptide; also called decamer 94-103
# Target: HLA-B*3501 (human)
row,binding result,Binder
1,no binding,"QVPLDCVLYR (synthetic peptide, 70% purity) [gp100 peptide 470-479 QVPLDCVLYR]"

# Target: HLA-B*3501 (human)
# Remark: another data set of the same source
row,RA (relative affinity),Binder
1,1.3,B1
2,1.1,EVDPIGHVY (synthetic peptide) [MAGE-A6 peptide 168-176 EVDPIGHVY]
3,0.58,B2
4,20,VPLDCVLYR (synthetic peptide) [gp100 peptide 471-479 VPLDCVLYR]
5,0.4,B3
6,1.32,EAAGIGILY (synthetic modified peptide) [modified Melan-A peptide 26-34 EAAGIGILY]
7,0.4,EPAGIGILY (synthetic modified peptide) [modified Melan-A peptide 26-34 EPAGIGILY]
8,16.7,B4
9,2.6,VPLDCVLYRY (synthetic peptide) [gp100 peptide 471-480 VPLDCVLYRY]
10,1.32,B5
11,1.25,LPSSADVEF (synthetic peptide) [tyrosinase peptide 312-320 LPSSADVEF]
12,> 20,B6

# Target: HLA-B*3501 (human)
# Remark: another data set of the same source
row,Stability (half-life of the peptide on HLA-B*35) [h],Binder
1,> 6,B1
2,> 6,B7
3,6,EVDPIGHVY (synthetic peptide) [MAGE-A6 peptide 168-176 EVDPIGHVY]
4,> 6,B2
5,> 6,B8
6,< 0.5,VPLDCVLYR (synthetic peptide) [gp100 peptide 471-479 VPLDCVLYR]
7,> 6,B3
8,> 6,EAAGIGILY (synthetic modified peptide) [modified Melan-A peptide 26-34 EAAGIGILY]
9,> 6,EPAGIGILY (synthetic modified peptide) [modified Melan-A peptide 26-34 EPAGIGILY]
10,< 0.5,B4
11,> 6,VPLDCVLYRY (synthetic peptide) [gp100 peptide 471-480 VPLDCVLYRY]
12,> 6,B5
13,6,LPSSADVEF (synthetic peptide) [tyrosinase peptide 312-320 LPSSADVEF]
14,> 6,B6

# Source: patent publication US20060122119A1 (INSTITUT NAT L DE LA SANTE ET DE LA RECHERCHE MED, published 2006)
